Source: patent US20180236028

Test system: Reelin of primary cortical neurons (endogenous, cellular and supernatant fractions)

MMP-9 (active; Calbiochem, PF140) was tested, and the “Reelin processing in primary neurons, Western blot” value was “application of MMP-9 to primary neurons led to a specific accumulation of the 180 kDa fragment in cells and MMP-9 inhibition for 24 hours led to a dramatic increase in full-length cellular Reelin and decrease in cellular 180 kDa Reelin”.
